According to patent publication US20220127313A1:
Non-standard residues stand in square brackets, D forms with d. No end group written: not given here. pS = N[C@@H](COP(=O)(O)O)C(=O)O

Columns and labels:
Assay in all cases: cell-based or functional assay
[1] = target: p38 MAPK γ isoform, P53778
[2] = target: p38 MAPK β isoform, Q15759
[3] = target: p38 MAPK δ isoform, O15264
Chain of p38 MAPK δ isoform, O15264 (O15264 whole entry, stated change not applied, canonical isoform): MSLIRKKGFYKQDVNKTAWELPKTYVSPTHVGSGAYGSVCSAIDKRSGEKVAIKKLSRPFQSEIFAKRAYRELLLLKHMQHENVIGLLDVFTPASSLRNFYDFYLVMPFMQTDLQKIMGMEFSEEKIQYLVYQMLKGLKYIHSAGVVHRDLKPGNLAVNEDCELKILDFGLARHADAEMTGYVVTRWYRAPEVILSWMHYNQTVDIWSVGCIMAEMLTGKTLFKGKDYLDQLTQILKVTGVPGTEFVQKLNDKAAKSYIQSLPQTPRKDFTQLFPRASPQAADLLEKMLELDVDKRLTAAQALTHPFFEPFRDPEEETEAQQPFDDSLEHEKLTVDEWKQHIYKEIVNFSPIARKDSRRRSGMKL

Chain of p38 MAPK β isoform, Q15759 (Q15759 whole entry, canonical isoform): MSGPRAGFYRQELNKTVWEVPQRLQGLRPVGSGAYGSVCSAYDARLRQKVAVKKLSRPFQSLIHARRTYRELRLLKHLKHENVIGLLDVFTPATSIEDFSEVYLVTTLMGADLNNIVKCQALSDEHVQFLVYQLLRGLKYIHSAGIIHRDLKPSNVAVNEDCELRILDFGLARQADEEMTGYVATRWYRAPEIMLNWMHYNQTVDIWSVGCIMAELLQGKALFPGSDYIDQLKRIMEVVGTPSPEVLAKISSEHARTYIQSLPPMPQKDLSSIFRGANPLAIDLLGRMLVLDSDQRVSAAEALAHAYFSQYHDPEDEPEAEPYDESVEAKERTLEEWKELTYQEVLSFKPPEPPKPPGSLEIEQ
Chain of p38 MAPK γ isoform, P53778 (P53778 whole entry, canonical isoform): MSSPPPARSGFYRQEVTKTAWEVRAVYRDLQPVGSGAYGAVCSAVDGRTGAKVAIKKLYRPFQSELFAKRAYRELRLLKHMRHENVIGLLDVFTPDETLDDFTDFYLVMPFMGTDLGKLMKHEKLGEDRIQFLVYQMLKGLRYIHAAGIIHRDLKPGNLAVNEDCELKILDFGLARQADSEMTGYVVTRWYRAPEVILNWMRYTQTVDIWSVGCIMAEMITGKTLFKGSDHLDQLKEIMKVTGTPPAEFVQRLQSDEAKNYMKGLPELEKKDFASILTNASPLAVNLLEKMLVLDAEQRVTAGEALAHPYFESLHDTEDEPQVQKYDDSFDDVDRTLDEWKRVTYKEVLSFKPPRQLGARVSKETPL

B1: NiPp polypeptide (Niban phosphopeptide), …(pS)AILPG (peptide)
peptide: YARAAARQARASPAARRA[pS]AILPG
In the case of B1, the % inhibition in kinase profiling screen, NiPp at 100 µM [1] is reported as 3%, the % inhibition in kinase profiling screen, NiPp at 100 µM [2] is reported as 5% and the % inhibition in kinase profiling screen, NiPp at 100 µM [3] is reported as 3%.
